T1: human GLP-1 receptor (Abcam) (human, UniProt P43220 24-145)
T1 chain: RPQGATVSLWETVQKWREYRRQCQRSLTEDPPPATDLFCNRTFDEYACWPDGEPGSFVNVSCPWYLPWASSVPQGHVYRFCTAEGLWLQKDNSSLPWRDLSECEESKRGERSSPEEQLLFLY


Experiments:
[1] = biological target: T1, human GLP-1 receptor (Abcam); test: BLI
[2] = biological target: Dulaglutide; test: BLI

Binder | Kd [1] [µM] | Kd [2] [µM]
GLP-1(A2G)-hyFc9 (Fc fusion, O-glycosylation at the IgD hinge region (positions not stated)) HGEGTFTSDVSSYLEGQAAKEFIAWLVKGRGAKATTAPATTRNTGRGGEEKKKEKEKEEQEERETKTPECPSHTQPLGVFLFPPKPKDTLMISRTPEVTCVVVDVSQEDPEVQFNWYVDGVEVHNAKTKPREEQFNSTYRVVSVLTVLHQDWLNGKEYKCKVSNKGLPSSIEKTISKAKGQPREPQVYTLPPSQEEMTKNQVSLTCLVKGFYPSDIAVEWESNGQPENNYKTTPPVLDSDGSFFLYSRLTVDKSRWQEGNVFSCSVMHEALHNHYTQKSLSLSLGK | 45 | –
GLP-1 receptor (receptor) RPQGATVSLWETVQKWREYRRQCQRSLTEDPPPATDLFCNRTFDEYACWPDGEPGSFVNVSCPWYLPWASSVPQGHVYRFCTAEGLWLQKDNSSLPWRDLSECEESKRGERSSPEEQLLFLY | – | 0.395

Reference: patent publication US20200282021A1 (published 2020)
